From article PMC4134263
Where two headings read alike, the source gives them in different places.

B1: lipA site 2 probe (dsDNA)
DNA 1: CAAAAATAGTTGATAATTACAACAATCTATTGAATTGAAACGC
DNA 2: GCGTTTCAATTCAATAGATTGTTGTAATTATCAACTATTTTTG
B2: lipA site 1 probe (dsDNA)
DNA 1: GAAACGCTTTCCTTCGTAATTCGCAACTGGAACACGCACGCTATGAG
DNA 2: CTCATAGCGTGCGTGTTCCAGTTGCGAATTACGAAGGAAAGCGTTTC

Experiments:
PdhR [1] = molecular target: T1, PdhR (Escherichia coli, UniProt P0ACL9 1-254); assay: EMSA
PdhR [2] = molecular target: T1, PdhR; assay: EMSA; remark: listed apart in the source

T1 sequence (P0ACL9 whole entry): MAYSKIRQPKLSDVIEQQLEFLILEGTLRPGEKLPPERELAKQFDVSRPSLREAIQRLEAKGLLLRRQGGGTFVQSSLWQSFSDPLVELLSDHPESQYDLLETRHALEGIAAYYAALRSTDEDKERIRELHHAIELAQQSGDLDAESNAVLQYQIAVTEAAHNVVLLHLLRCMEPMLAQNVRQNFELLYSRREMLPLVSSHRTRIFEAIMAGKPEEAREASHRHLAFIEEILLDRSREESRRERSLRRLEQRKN

Row | Binder | binding result (PdhR [1]) | binding result (PdhR [2])
1 | B1 | no binding | 
2 | B2 |  | no binding
